Assay [1] deals with T1, S. cerevisiae Efl1 R1086Q (S. cerevisiae, UniProt P53893 1-1110, R1086Q).
T1 construct: Elongation Factor-like 1 (Efl1) GTPase of S. cerevisiae with the mutation R1086Q, equivalent to human EFL1 R1095Q; also called mutant Efl1; mutant R1086Q; source: recombinantly expressed in S. cerevisiae, purified
T1 sequence (looked up): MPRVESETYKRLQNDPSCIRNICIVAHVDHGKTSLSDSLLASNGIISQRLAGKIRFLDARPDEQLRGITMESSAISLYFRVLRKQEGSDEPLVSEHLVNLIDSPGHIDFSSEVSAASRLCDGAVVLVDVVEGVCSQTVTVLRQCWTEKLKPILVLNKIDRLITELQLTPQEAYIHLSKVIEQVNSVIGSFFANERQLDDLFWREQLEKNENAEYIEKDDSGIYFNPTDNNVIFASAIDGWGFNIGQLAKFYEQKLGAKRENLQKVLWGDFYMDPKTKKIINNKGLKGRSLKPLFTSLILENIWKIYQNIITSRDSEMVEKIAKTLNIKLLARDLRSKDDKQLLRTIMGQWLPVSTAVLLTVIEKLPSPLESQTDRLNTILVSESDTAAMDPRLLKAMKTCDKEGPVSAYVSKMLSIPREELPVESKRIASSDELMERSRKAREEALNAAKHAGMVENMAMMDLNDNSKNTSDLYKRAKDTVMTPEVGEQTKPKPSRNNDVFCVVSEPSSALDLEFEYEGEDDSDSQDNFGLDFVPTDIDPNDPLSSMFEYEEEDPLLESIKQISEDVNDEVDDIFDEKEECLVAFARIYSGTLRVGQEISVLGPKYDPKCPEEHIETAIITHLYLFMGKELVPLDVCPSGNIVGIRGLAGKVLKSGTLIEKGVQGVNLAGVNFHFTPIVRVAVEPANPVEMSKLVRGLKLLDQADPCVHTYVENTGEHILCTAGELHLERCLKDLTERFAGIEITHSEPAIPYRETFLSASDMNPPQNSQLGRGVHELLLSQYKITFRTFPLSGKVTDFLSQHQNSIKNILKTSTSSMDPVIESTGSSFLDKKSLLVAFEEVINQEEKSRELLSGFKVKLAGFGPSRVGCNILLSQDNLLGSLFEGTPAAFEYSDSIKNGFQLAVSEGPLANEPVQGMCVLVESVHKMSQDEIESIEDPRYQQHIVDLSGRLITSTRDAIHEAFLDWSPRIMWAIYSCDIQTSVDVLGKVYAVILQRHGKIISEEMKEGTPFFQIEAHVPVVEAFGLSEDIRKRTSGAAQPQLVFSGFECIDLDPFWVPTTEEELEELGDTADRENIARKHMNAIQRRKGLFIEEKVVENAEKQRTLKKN
As to the kind of experiment: ITC; 35 °C; GTPase in the cell (30-50 µM), Sdo1 as ligand; 50 mM Tris-HCl pH 8.0, 150 mM NaCl, 100 µM DTT, 5% glycerol; one-binding-site model. The conditions noted are these: both partners purified. (In general: Isothermal titration calorimetry measures the heat released or taken up as one component is titrated into another.)

Assay [2] deals with T1, S. cerevisiae Efl1 R1086Q. In words: ITC; 25 °C; GTPase in the cell (30-50 µM), Sdo1 as ligand; 50 mM Tris-HCl pH 8.0, 150 mM NaCl, 100 µM DTT, 5% glycerol; one-binding-site model. The conditions noted are these: both partners purified.
Assay [3] has as its target T1, S. cerevisiae Efl1 R1086Q. In words: ITC; coupled equilibria at 30 °C with MgGDP (5 mM MgCl2); heterotropic cooperativity calculated from the titrations of Efl1 R1086Q and of Efl1 R1086Q•Sdo1. The conditions noted are these: both partners purified.
Assay [4] deals with wild-type Efl1. The note with it: cited from earlier work.
In assay [5] the target is T2, Efl1 R1086Q (Saccharomyces cerevisiae, UniProt P53893, R1086Q).
T2 construct: made in house; host or cells: Saccharomyces cerevisiae
As to the kind of experiment: Isothermal titration calorimetry (ITC): binding of guanine nucleotides or Sdo1 to Efl1 R1086Q. How it is done: All calorimetric measurements were carried out using MicroCal^TM iTC200 System (GE Healthcare, Northampton, MA, USA) in a temperature range of 25–35 °C. Experiments were performed in a buffer consisting of 50 mM Tris-HCl (pH 8.0), 150 mM NaCl, 100 µM DTT, and 5% glycerol. In the titrations with Mg^2+-bound nucleotides, both the ligand and protein solutions contained 5 mM MgCl2. In the case of titrations with Mg^2+-free nucleotide, both the ligand and protein solutions were supplemented with 2 mM EDTA to sequester any residual trace of metal ions in solution. Protein samples and ligands were prepared in the exact same buffer prior to each titration. Protein concentration in the cell comprised 30–50 µM GTPase, while the ligand concentration in the syringe was 2–3 mM for GTP, MgGTP, GDP, and MgGDP. To ensure measuring the interaction of the complex Efl1 R1086Q•Sdo1 with the nucleotide, an eight-fold concentration excess of Sdo1 was used compared with that of the enzyme. […] The titration schedule consisted of 15–20 consecutive injections of the ligand with 5 min intervals between injections and a stirring rate of 700 rpm. The dilution heat of the ligand was obtained by adding the ligand to a buffer solution under identical conditions and with the same injection schedule used for the protein sample. All samples were degassed for 10 min prior to the experiment.
The binding isotherms obtained for the isolated GTPase in the presence of Mg(II) were analysed using a ternary model in which the protein can bind to the free nucleotide (G(D)TP) or that bound to one magnesium ion (MgG(D)TP); additionally, GTP may also exist in the form of Mg2GTP, which is not recognised by the protein. The derivation of this coupled-equilibria model can be reviewed in [6, 31]. The binding constant (Kb), the enthalpy change (∆Hb), and the stoichiometry (n) were obtained with the non-linear routines implemented in Origin 5.0 (OriginLab, Co., Northampton, MA, USA) using a one-binding-site model as described in [32, 33]. The heterotropic cooperativity for the binding of guanine nucleotides and Sdo1 to Efl1 R1086Q were calculated as previously described in [6, 32]. The cooperative effects of Mg(II) on the binding of guanine nucleotides to Efl1 R1086Q alone and bound to Sdo1 were calculated as follows:κ = KE-MG/KE-G κ = KES-MG/KES-G Δh = ΔHE-MG − ΔHE-G Δh = ΔHES-MG − ΔHES-G where subscripts E-MG and E-G stand for the association of the metal-bound and metal-free guanine nucleotide with mutant Efl1, respectively. Corresponding expressions applied to the heterotropic cooperativity of the binding of nucleotides to the preformed complex, Efl1•Sdo1 (ES).
The impact of Sdo1 on the binding of Efl1 R1086Q to guanine nucleotides in the presence of magnesium ions is contained in KES-MG and ΔHES-MG relative to the KE-S and ΔHE-S values; analogous ratios report the effects in the absence of Mg(II):κ = KES-MG/KE-S κ = KES-G/KE-G Δh = ΔHES-MG − ΔHE-S Δh = ΔHES-G − ΔHE-G
The corresponding cooperative entropy change was calculated as:TΔs = Δh − Δg = Δh + RTlnκ
The detailed methodology and equations to compute the changes in the accessible surface area (∆ASA) of the GTPase upon binding to nucleotides and the ∆S energetic-based parameters are reported in [6]. Briefly, the water-accessible areas (ASAs) were computed using programme NACCESS, while the changes in accessible surface area (ΔASA) upon the formation of each GTPase–nucleotide complex were estimated considering the difference between the complex and the sum of the free interacting partners. The calculated polar (ΔASAp) and apolar (ΔASAap) area changes were subsequently used to estimate the free molecular partners. […]

Assay [6] deals with T1, S. cerevisiae Efl1 R1086Q. As to the kind of experiment: ITC; 30 °C; GTPase in the cell (30-50 µM), Sdo1 as ligand; 50 mM Tris-HCl pH 8.0, 150 mM NaCl, 100 µM DTT, 5% glycerol; one-binding-site model. The conditions noted are these: both partners purified.

Several values for one entry are separate records, joined by “and”; a condition that tells them apart may be missing. Identical values can stand only once.

Results on one molecule are retold here after article PMC9405973, “Altered Conformational Landscape upon Sensing Guanine Nucleotides in a Disease Mutant of Elongation Factor-like 1 (EFL1) GTPase” (Biomolecules, 2022).

A word on the Kd: it is a measure of binding affinity in units of concentration.

B1: Yeast SBDS (Sdo1) (natural protein, S. cerevisiae, UniProt Q07953 1-250, looked up)
chain: MPINQPSGQIKLTNVSLVRLKKARKRFEVACYQNKVQDYRKGIEKDLDEVLQIHQVFMNVSKGLVANKEDLQKCFGTTNVDDVIEEIMHKGEIQLSEKERQLMLNKVNNEMLTIVSAKCINPVSKKRYPPTMIHKALQELKFSPVINKPAKLQALEAIKLLVSKQIIPIVRAKMKVKVAISEPSRQPELIEKISKLIASSPGESTKPELDPWTCTGLIDPVNYRDLMTLCDKKGTVQVLDMAVIDNTTHN
notes: Sdo1, the yeast orthologue of SBDS; also called yeast Shwachman-Bodian-Diamond syndrome protein; source: E. coli C41, purified
On to B1, for which the Ka came to 543000 ± 76000 M⁻¹ in assay [1], 256000 ± 47000 M⁻¹ in assay [2] and 288000 ± 56000 M⁻¹ in assay [6]. In addition, the Kd was 1800 ± 200 nM in assay [1]; 3.9 ± 0.7 µM in assay [2]; 300 nM in assay [4] (ligand Sdo1, 30 °C); 3000 nM in assay [5] (ligand Sdo1, 30 °C, read-out: Kd); 3.4 ± 0.6 µM in assay [6]. Besides, the dH was -8.7 ± 0.1 kcal/mol in assay [1], -4.3 ± 0.1 kcal/mol in assay [2] and -6.3 ± 0.2 kcal/mol in assay [6]. In addition, the “fold decrease of the interaction with MgGDP against no nucleotide” value in assay [3] is 3 fold. Further, the “-TΔSb” value in assay [4] (ligand Sdo1, 30 °C) is 4.4 kcal/mol; in assay [5] (ligand Sdo1, 25 °C), -3.1 kcal/mol; in assay [5] (ligand Sdo1, 30 °C), -1.3 kcal/mol; in assay [5] (ligand Sdo1, 35 °C), 0.6 kcal/mol. The ΔGb in assay [4] (ligand Sdo1, 30 °C) is -9.0 kcal/mol; in assay [5] (ligand Sdo1, 25 °C) it was -7.4 kcal/mol; in assay [5] (ligand Sdo1, 30 °C) it was -7.6 kcal/mol; in assay [5] (ligand Sdo1, 35 °C), -8.1 kcal/mol. In assay [4] (ligand Sdo1, 30 °C), the ΔHb is -13.4 ± 0.4 kcal/mol. Moreover, the ΔCpb was −860 cal mol^−1 K^−1 and −860 ± 31 cal mol^−1 K^−1 in assay [4] (ligand Sdo1); −440 cal mol^−1 K^−1 and −440 ± 23 cal mol^−1 K^−1 in assay [5] (ligand Sdo1, from ΔHb at 25–35 °C).
